Reference: publication PMC5789848, “HTLV-1 Tax plugs and freezes UPF1 helicase leading to nonsense-mediated mRNA decay inhibition”

T1: UPF1-HD (Homo sapiens, UniProt Q92900-2 295-914)
T1 sequence: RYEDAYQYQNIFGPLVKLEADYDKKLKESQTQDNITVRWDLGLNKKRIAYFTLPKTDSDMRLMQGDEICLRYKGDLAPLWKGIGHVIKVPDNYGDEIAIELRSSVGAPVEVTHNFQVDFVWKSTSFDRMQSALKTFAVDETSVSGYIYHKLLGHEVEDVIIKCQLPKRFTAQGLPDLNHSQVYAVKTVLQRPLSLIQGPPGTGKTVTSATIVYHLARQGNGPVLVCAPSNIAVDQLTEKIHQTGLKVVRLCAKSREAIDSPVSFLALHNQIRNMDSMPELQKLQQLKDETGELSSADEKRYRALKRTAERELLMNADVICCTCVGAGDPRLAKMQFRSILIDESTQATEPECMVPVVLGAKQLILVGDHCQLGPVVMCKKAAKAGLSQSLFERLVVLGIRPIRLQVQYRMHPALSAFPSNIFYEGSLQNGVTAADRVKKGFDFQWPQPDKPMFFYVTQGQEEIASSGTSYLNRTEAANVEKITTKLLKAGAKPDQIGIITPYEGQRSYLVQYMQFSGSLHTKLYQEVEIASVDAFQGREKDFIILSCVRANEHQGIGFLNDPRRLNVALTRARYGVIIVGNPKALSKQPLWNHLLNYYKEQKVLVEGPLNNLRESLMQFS


Assays:
UPF1-HD [1] = target: T1, UPF1-HD; assay: EMSA; UPF1-HD 0-10 nM, RNA 1 nM; BLI: 20 mM HEPES pH 7.5, 150 mM K acetate, 2 mM Mg acetate, 1 mM DTT, 6.3% glycerol, 0.1% NP-40; EMSA: 20 mM MES pH 6.0, 150 mM K acetate, 2 mM DTT, 0.2 ug/ul BSA, 6% glycerol, 30 C; pull-down: BLI-like buffer, 30 C then 4 C, 200 mM NaCl wash; details: protein: recombinant; tags: C-terminal His6 (CBP N-terminal and/or His6 per Methods); label: 32P; single strand
UPF1-HD [2] = target: T1, UPF1-HD; assay: pull-down; 200 mM NaCl; BLI: 20 mM HEPES pH 7.5, 150 mM K acetate, 2 mM Mg acetate, 1 mM DTT, 6.3% glycerol, 0.1% NP-40; EMSA: 20 mM MES pH 6.0, 150 mM K acetate, 2 mM DTT, 0.2 ug/ul BSA, 6% glycerol, 30 C; pull-down: BLI-like buffer, 30 C then 4 C, 200 mM NaCl wash; details: protein: recombinant; tags: C-terminal His6 (CBP N-terminal and/or His6 per Methods); label: 3' biotin (BtnTg); single strand

Binder | binding result (UPF1-HD [1]) | binding result (UPF1-HD [2])
CGUCCAUCUGGUCAUCUAGUGAUAUCAUCG (ssRNA) [30-mer ssRNA (EMSA)] | binds | 
CGUCCAUCUGGUCAUCUAGUGAUAUCAUCG (ssRNA) [30-mer ssRNA 3'-biotin (pull-down)] |  | binds
